One molecule from publication PMC12355267, “Human Helicase DDX5 is Hijacked by SARS-CoV‑2 Nsp13 Helicase to Enhance RNA Unwinding” (ACS Omega, 2025) can be followed below.

The target of this test is T1, SARS-CoV-2 Nsp13 helicase (SARS-CoV-2, UniProt P0DTD1 5325-5925).
T1 construct: also called Nsp13 helicase of SARS-CoV-2
As to the kind of experiment: BLI. The note with it: both partners purified.

B1: DDX5ΔC (1–484) (domain or fragment, human, UniProt P17844 1-484, looked up)
chain: MSGYSSDRDRGRDRGFGAPRFGGSRAGPLSGKKFGNPGEKLVKKKWNLDELPKFEKNFYQEHPDLARRTAQEVETYRRSKEITVRGHNCPKPVLNFYEANFPANVMDVIARQNFTEPTAIQAQGWPVALSGLDMVGVAQTGSGKTLSYLLPAIVHINHQPFLERGDGPICLVLAPTRELAQQVQQVAAEYCRACRLKSTCIYGGAPKGPQIRDLERGVEICIATPGRLIDFLECGKTNLRRTTYLVLDEADRMLDMGFEPQIRKIVDQIRPDRQTLMWSATWPKEVRQLAEDFLKDYIHINIGALELSANHNILQIVDVCHDVEKDEKLIRLMEEIMSEKENKTIVFVETKRRCDELTRKMRRDGWPAMGIHGDKSQQERDWVLNEFKHGKAPILIATDVASRGLDVEDVKFVINYDYPNSSEDYIHRIGRTARSTKTGTAYTFFTPNNIKQVSDLISVLREANQAINPKLLQLVEDRGSGRSR
notes: human DDX5 without the flexible C-terminal end, residues 1-484; also called C-terminal truncated form of DDX5; source: E. coli (gene optimized for E. coli expression, pETM-13), purified
With B1, the binding result was “binds”.
